In US20170320960A1 (AbbVie / Abbott, published 2017):

T1: hMFI2 Tf-like Domain 1 (TLD1), amino acids 20-357, displayed on yeast (human, UniProt P08582 20-357)
T1 construct: also called TFLD1
T1 sequence: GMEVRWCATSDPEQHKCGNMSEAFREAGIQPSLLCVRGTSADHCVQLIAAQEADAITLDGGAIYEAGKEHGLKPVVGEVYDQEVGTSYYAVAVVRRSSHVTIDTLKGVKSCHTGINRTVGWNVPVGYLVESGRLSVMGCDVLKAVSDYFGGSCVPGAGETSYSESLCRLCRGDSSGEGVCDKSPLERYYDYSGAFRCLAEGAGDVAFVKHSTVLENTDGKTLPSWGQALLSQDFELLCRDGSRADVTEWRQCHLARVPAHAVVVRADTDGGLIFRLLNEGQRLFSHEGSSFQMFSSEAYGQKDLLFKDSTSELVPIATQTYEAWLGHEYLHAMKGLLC

T2: hMFI2 Tf-like Domain 2 (TLD2), amino acids 366-709, displayed on yeast (human, UniProt P08582 366-709)
T2 construct: also called TFLD2; transferrin-like domain 2
T2 sequence: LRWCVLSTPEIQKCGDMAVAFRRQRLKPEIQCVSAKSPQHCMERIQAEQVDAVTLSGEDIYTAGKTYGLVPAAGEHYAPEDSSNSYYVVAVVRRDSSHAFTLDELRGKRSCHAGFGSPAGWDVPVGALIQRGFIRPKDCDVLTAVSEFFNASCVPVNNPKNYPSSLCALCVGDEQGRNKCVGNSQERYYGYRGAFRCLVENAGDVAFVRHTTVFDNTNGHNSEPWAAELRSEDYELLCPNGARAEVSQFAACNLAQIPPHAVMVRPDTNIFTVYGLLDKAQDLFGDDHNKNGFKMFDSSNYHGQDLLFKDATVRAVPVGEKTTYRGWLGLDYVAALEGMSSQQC


target: T1, hMFI2 Tf-like Domain 1 (TLD1), amino …; experiment: flow cytometry on yeast displaying hMFI2 domains

binding result | Binder
binds | SC57.1 (antibody, V domains shown) VH: QVQLKQSGPGLVQPSQSLSITCTVSGFSLTDYGVHWVRQSPGKGLDWLGVIWSGGNTDYNAAFISRLSISKDNSKSQIFFEMNSLQDTDTAIYYCARQLHYYGPFAYWGQGTLVTVSA VL: QIVLTQSPAIMSASPGEKVTMTCSASSSVSYMHWYQQKSGTSPKRWIYDTSKLASGVPVRFSGSGSGTSYSLTISSIEADDAATYYCQQWSRTPPTFGGGTKLEIK

target: T2, hMFI2 Tf-like Domain 2 (TLD2), amino …; experiment: flow cytometry on yeast displaying hMFI2 domains

binding result | Binder
binds | SC57.10 (antibody, V domains shown) VH: QVQLQQSGAELMKPGASVKISCKATGYTFSNYRIEWIKQRPGHGLEWIGEILPRGGNTNYNEKFKGKATFTADTSSNTAYMQLTSLTSEDSAVYYCARDDGYYGRFAYWGQGTLVTVSA VL: DIQMTQTTSSLSASLGDRVTISCRASQDISNYLNWYQQKPDGTVKLLIFYTSRLHSGVPSRFSGSGSGTDYSLTISNLEQEDFATYFCQQGNTLPPTFGGGTKLEIK
binds | SC57.11 (antibody, V domains shown) VH: QVQLQQSGAELMKPGASVKISCKATGYTFSNYRIEWMKQRPGHGLEWIGEILPRTGNTNYNENFKGKATFTADTSSNTAYIQLSSLTSEDSAVYYCARDDGYYGRFAYWGQGTLVTVSA VL: DIQMTQTTSSLSASLGDRVTISCRASQDISSYLNWYQQKPDGTVKLLIYYTSRLHSGVPSRFSGSGSGTDYSLTINNLEQEDIATYFCQQGNTLPPTFGGGTKLEIK

The remaining lines, values behind:

Binder | binding result
SC57.5 (antibody, V domains shown) VH: EVQLQQSGPELVKPGASVKISCKASGYSFTDYYLHWVKQSHVKSLEWIGRINPYNGATSYNQIFKDKASLTVDKSSSTAYMDLHSLTSEDSAVYYCARGGDYDFPWYWGQGTTLTVSP VL: DIVMTQSHKFMSTSVGDRVSITCKASQDVYAAVAWYHQKPGQSPKLLIYWASTRHAGVPDRFTGSGSGTDYTLTISSVQAEDLALYYCQQHYRTPWTFGGGTKLEIK | binds
SC57.4 (antibody, V domains shown) VH: EIQLQQSGPEMVKPGASVKVTCKASGYSFTDFNMHWMKQSHGKSLEWIGYIDPYKGGISYNQKFKGRATLTVDKSSSTAFMHLNSLTSDDSAVYYCARDYYGSRFPYYFDYWGQGTTLTVSS VL: DVVMTQTPLSLPVSLGDQASISCRSSQSLVHSNGNTYLHWYLQKPGQSPKLLIYRVSNRFSGVPDRFSGSGSGTDFTLKISRVEAEDLGVYLCSQSTHVPLTFGAGTKLELK | binds
SC57.18 (antibody, V domains shown) VH: EIQLQQSGPEMVKPGASVKVTCKASGYSFTDFNMHWMKQSHGKSLEWIGYIDPYKGGISYNQKFKGRATLTVDKSSSTAFMHLNSLTSDDSAVYYCARDYYGSRFPYYFDYWGQGTTLTVSS VL: DVVMTQTPLSLPVSLGDQASISCRSSQSLVHSNGNTYLHWYLQKPGQSPKLLIYRVSNRFSGVPDRFSGSGSGTDFTLKISRVEAEDLGVYLCSQSTHVPLTFGAGTKLELK | binds
SC57.25 (antibody, V domains shown) VH: EIQLQQSGPEMVKPGASVKVTCKASGYSFTDFNMHWMKQSHGKSLEWIGYIDPYKGGISYNQKFKGRATLTVDKSSSTAFMHLNSLTSDDSAVYYCARDYYGSRFPYYFDYWGQGTTLTVSS VL: DVVMTQTPLSLPVSLGDQASISCRSSQSLVHSNGNTYLHWYLQKPGQSPKLLIYRVSNRFSGVPDRFSGSGSGTDFTLKISRVEAEDLGVYLCSQSTHVPLTFGAGTKLELK | binds
SC57.28 (antibody, V domains shown) VH: EIQLQQSGPEMVKPGASVKVTCKASGYSFTDFNMHWMKQSHGKSLEWIGYIDPYKGGISYNQKFKGRATLTVDKSSSTAFMHLNSLTSDDSAVYYCARDYYGSRFPYYFDYWGQGTTLTVSS VL: DVVMTQTPLSLPVSLGDQASISCRSSQSLVHSNGNTYLHWYLQKPGQSPKLLIYRVSNRFSGVPDRFSGSGSGTDFTLKISRVEAEDLGVYLCSQSTHVPLTFGAGTKLELK | binds
SC57.9 (antibody, V domains shown) VH: QVQLQQSGPELMKPGASVKISCKATGYTFSSYWIEWVKQRPGHGLEWIGEILPGSGSTEYNEKFKGKATFTADTSSNTAYMQLSSLTSEDSDVYYCARKRYGTMDYWGQGTSVTVSS VL: QIVLTQSPAIMSASPGEKVTITCSASSSVSYMHWFQQKPGTSPKLWIYTTSNLASGVPARFSGSGSGTSYSLTISRMEAEDAATYYCQQRSSFPPTFGSGTKLEIK | binds
SC57.17 (antibody, V domains shown) VH: EVQLQQSGAELVKPGASVKLSCTASGFNIKDTYMHWVKQRPEQGLEWIGRIDPANVNTSDDPKFQGKATIAADTSSNTVYLQLSSLTSEDTAVYYCARDYRYDGYYYAMDYWGQGTSVTVSS VL: DIQMTQTTSSLSASLGDRVTISCSASQDINNYLNWYQQKPDGTVKLLIHYTSSLHSGVPSRFSGSGSGTDYSLTISNLEPEDIATYYCQQYSKVPWTFGGGTKLEIK | binds

target: T2, hMFI2 Tf-like Domain 2 (TLD2), amino …; experiment: flow cytometry on yeast displaying hMFI2 domains; remark: another data set of the same source

binding result | Binder
binds | SC57.37 (antibody, V domains shown) VH: EIQLQQSGPEMVKPGASVKVTCKASGYSFTDFNMHWMKQSHGKSLEWIGYIDPYKGGISYNQKFKGRATLTVDKSSSTAFMHLNSLTSDDSAVYYCARDYYGSRFPYYFDYWGQGTTLTVSS VL: DVVMTQTPLSLPVSLGDQASISCRSSQSLVHSNGNTYLHWYLQKPGQSPKLLIYRVSNRFSGVPDRFSGSGSGTDFTLKISRVEAEDLGVYLCSQSTHVPLTFGAGTKLELK
binds | SC57.31 (antibody, V domains shown) VH: QVHLKESGPGLVAPSQSLSITCTVSGFSLTTYGVHWVRQPPGKGLEWLGVIWAGGSTKYNSAFMSRLSISKDNSKTQVLLKMNSLQTDDTAMYYCARVASHGSSSWFAYWGQGTLVTVSA VL: DIVLTQSPATLSVTPGDSVSLSCRASQSVGNSLHWYQQKSHESPRLLIKYASQSISGIPSRFSGSGSGTDFTLSINSVETEDFGMYFCQQSDSWPLTFGTGTKLELK
binds | SC57.55 (antibody, V domains shown) VH: QVQLKQSGPGLVQPSQSLSITCTVSGFSLSSYGVHWVRQSPGKGLEWLGVIWSGGNTDYNAAFISRLSISKDNSKSQVFFKMNSLQADDTAIYYCARRNNSAWFAYWGQGTLVTVSA VL: DIVLTQSPATLSVTPGDSVSLSCRASQGISNNLHWYQQKSHESPRLLIKYASQSISGIPSRFSGSGSGTDFALSINSVETEDFGMFFCQQSNSWPLTFGAGTKLELK
binds | SC57.52 (antibody, V domains shown) VH: QVQLKQSGPGLVQPSQSLSITCTVSGFSLSSYGVHWVRQSPGKGLEWLGVIWSGGNTDYNAAFISRLSISKDNSKSQVFFKMNSLQADDTAIYYCARRNNSAWFAYWGQGTLVTVSA VL: DIVLTQSPATLSVTPGDSVSLSCRASQGISNNLHWYQQKSHESPRLLIKYASQSISGIPSRFSGSGSGTDFALSINSVETEDFGMFFCQQSNSWPLTFGAGTKLELK
binds | hSC57.5 (antibody, human IgG1, kappa, V domains shown, also called humanized SC57.5) VH: EVQLVQSGAEVKKPGESLKISCKGSGYSFTDYYLHWVRQMPGKGLEWMGRINPYNGATSYNQIFKDQVTISADKSISTAYLQWSSLKASDTAMYYCARGGDYDFPWYWGQGTTVTVSS VL: DIQMTQSPSSLSASVGDRVTITCKASQDVYAAVAWYQQKPGKAPKLLIYWASTRHAGVPSRFSGSGSGTDFTLTISSLQPEDFATYYCQQHYRTPWTFGQGTKVEIKR
binds | hSC57.32 (antibody, human IgG1, kappa, V domains shown) VH: QVQLVQSGAEVKKPGASVKVSCKASGYTFTNYRIEWVRQAPGQGLEWMGEILPRGGNTNYNEKFKGRVTFTADTSTSTAYMELRSLRSDDTAVYYCARDDGYYGRFAYWGQGTLVTVSS VL: DIQMTQSPSSLSASVGDRVTITCRASQDISNYLNWYQQKPGKAPKLLIYYTSRLHSGVPSRFSGSGSGTDYTLTISSLQPEDFATYYCQQGNTLPPTFGGGTKVEIKR
binds | hSC57.43 (antibody, human IgG1, kappa, V domains shown) VH: QVQLVESGGGVVQPGRSLRLSCAASGFTFGSYTMSWVRQAPGKGLEWVAYISNGGYVTYYPDTVKGRFTISRDNSKNTLYLQMNSLRAEDTAVYYCARGYDWYFDVWGQGTTVTVSS VL: DIVMTQSPDSLAVSLGERATINCRSSQSLVHSNGNTYLHWYQQKPGQPPKLLIYKVSNRFSGVPDRFSGSGSGTDFTLTISSLQAEDVAVYYCSQSTHVPLYTFGGGTKVEIKR
binds | SC57.32 (antibody, V domains shown) VH: QVQLQQSGAELMKPGASVKISCKATGYTFSNYRIEWIKQRPGHGLEWIGEILPRGGNTNYNEKFKGKATFTADTSSNTAYMQLTSLTSEDSAVYYCARDDGYYGRFAYWGQGTLVTVSA VL: DIQMTQTTSSLSASLGDRVTISCRASQDISNYLNWYQQKPDGTVKLLIFYTSRLHSGVPSRFSGSGSGTDYSLTISNLEQEDFATYFCQQGNTLPPTFGGGTKLEIK
